Assay results reported in paper PMC4830966, “Molecular basis of the STIL coiled coil oligomerization explains its requirement for de-novo formation of centrosomes in mammalian cells” (Scientific Reports, 2016).
Numbering of substitutions follows the chain as printed. In names and notes the source's numbering stands.

B1: WT STIL CCD peptide (STIL amino acids 718-749) (peptide)
peptide: LSPDAYRFLTEQDRQLRLLQAQIQRLLEAQSL
notes: also called WT CCD; STIL coiled coil peptide; source: synthetic peptide
B2: STIL CCD L718E peptide (peptide)
peptide: B1 peptide with L1E
notes: source: synthetic peptide
B3: STIL CCD L736E peptide (peptide)
peptide: B1 peptide with L19E
notes: source: synthetic peptide

Tests used:
[1] = target: the molecule itself; assay: SEC; 500 μM WT STIL CCD peptide on Superdex30 analytical column, 25 mM sodium phosphate buffer pH 6.8 (IS = 40 mM)
[2] = target: the molecule itself; assay: SEC; 250 µl of 100 μM peptide on Superdex30 analytical column, 25 mM sodium phosphate buffer pH 6.8 (IS = 40 mM); comparison of elution profiles
[3] = target: the molecule itself; assay: SEC; 35 μM WT STIL CCD peptide on Superdex30 analytical column, 25 mM sodium phosphate buffer pH 6.8 (IS = 40 mM)

| Protein | stoichiometry N [1] | stoichiometry N [2] | stoichiometry N [3] |
| --- | --- | --- | --- |
| B1 | 4 | ~4 | ~2 |
| B2 |  | ~2 |  |
| B3 |  | ~2 |  |
